B1: 22109 (protein)
chain: MALPVTALLLPLALLLHAARPMLPAPKNLVVSRITEDSARLSWTAPDAAFDSFPIRYIETLIWGEAIWLDVPGSERSYDLTGLKPGTEYAVVITGVKGGRFSSPLVASFTTGTGGGGSGGGGSGGGGSEFDIQMTQSPSSLSASVGDRVTITCKASDHINNWLAWYQQKPGQAPKLLIYGATTLETGVPSRFSGSGSGTDYTLTISSLQPEDFATYYCQQSWNTPWTFGQGTKLEIKRLEDLKNVFPPEVAVFEPSEAEISHTQKATLVCLATGFYPDHVELSWWVNGKEVHSGVCTDPQPLKEQPALNDSRYCLSSRLRVSATFWQNPRNHFRCQVQFYGLSENDEWTQDRAKPVTQIVSAEAWGRADCGFTSESYQQGVLSATILYEILLGKATLYAVLVSALVLMAMVKRKDSRGRAKRSGSGATNFSLLKQAGDVEENPGPTSMDWIWRILFLVGAATGAHSFEQVQLQQPGAELVKPGASVKMSCKASGYAFSSYWINWMKQKPGQGLEWIGQIYPGDGDTNYNGKFKGRATLTADTSSSTAYMQLSSLTSEDSAVYFCARSITTVVGCAMDYWGQGTSVTVSSTRIQNPDPAVYQLRDSKSSDKSVCLFTDFDSQTNVSQSKDSDVYITDKCVLDMRSMDFKSNSAVAWSNKSDFACANAFNNSIIPEDTFFPSPESSCDVKLVEKSFETDTNLNFQNLSVIGFRILLLKVAGFNLLMTLRLWSSRAKRSGSGVKQTLNFDLLKLAGDVESNPGPSRGHMTEYKPTVRLATRDDVPRAVRTLAAAFADYPATRHTVDPDRHIERVTELQELFLTRVGLDIGKVWVADDGAAVAVWTTPESVEAGAVFAEIGPRMAELSGSRLAAQQQMEGLLAPHRPKEPAWFLATVGVSPDHQGKGLGSAVVLPGVEAAERAGVPAFLETSAPRNLPFYERLGFTVTADVEVPEGPRTWCMTRKPGA
B2: 22127 (protein)
chain: MALPVTALLLPLALLLHAARPMLPAPKNLVVSRITEDSARLSWTAPDAAFDSFPIRYIETLIWGEAIWLDVPGSERSYDLTGLKPGTEYAVVITGVKGGRFSSPLVASFTTGTGGGGSGGGGSGGGGSEFDIQMTQSPSSLSASVGDRVTITCKASDHINNWLAWYQQKPGQAPKLLIYGATTLETGVPSRFSGSGSGTDYTLTISSLQPEDFATYYCQQSWNTPWTFGQGTKLEIKRLEIQNPDPAVYQLRDSKSSDKSVCLFTDFDSQTNVSQSKDSDVYITDKCVLDMRSMDFKSNSAVAWSNKSDFACANAFNNSIIPEDTFFPSSDVPCDVKLVEKSFETDTNLNFQNLSVIGFRILLLKVAGFNLLMTLRLWSSRAKRSGSGVKQTLNFDLLKLAGDVESNPGPTSATMDWIWRILFLVGAATGAHSGPQVQLQESGGGLAQAGGSLRLSCAASGRTFSMGWFRQAPGKEREFVAAITYSGGSPYYASSVRGRFTISRDNAKNTVYLQMNSLKPEDTAVYYCAANPTYGSDWNAENWGQGTQVTVSSGSGGGGSGGGGSGGGGSFEQVQLQQPGAELVKPGASVKMSCKASGYAFSSYWINWMKQKPGQGLEWIGQIYPGDGDTNYNGKFKGRATLTADTSSSTAYMQLSSLTSEDSAVYFCARSITTVVGCAMDYWGQGTSVTVSSTREDLKNVFPPEVAVFEPSKAEIAHTQKATLVCLATGFYPDHVELSWWVNGKEVHSGVCTDPQPLKEQPALNDSRYCLSSRLRVSATFWQNPRNHFRCQVQFYGLSENDEWTQDRAKPVTQIVSAEAWGRADCGITSASYHQGVLSATILYEILLGKATLYAVLVSALVLMAMVKRKDSRGRAKRSGSGATNFSLLKQAGDVEENPGPSRGHMTEYKPTVRLATRDDVPRAVRTLAAAFADYPATRHTVDPDRHIERVTELQELFLTRVGLDIGKVWVADDGAAVAVWTTPESVEAGAVFAEIGPRMAELSGSRLAAQQQMEGLLAPHRPKEPAWFLATVGVSPDHQGKGLGSAVVLPGVEAAERAGVPAFLETSAPRNLPFYERLGFTVTADVEVPEGPRTWCMTRKPGA
B3: 22111 (protein)
chain: MALPVTALLLPLALLLHAARPEVQLLESGGGLVQPGGSLRLSCAASGFTFSSYAMSWVRQAPGKGLEWVSSISGSGDYIYYADSVKGRFTISRDISKNTLYLQMNSLRAEDTAVYYCAKEGTGANSSLADYRGQGTLVTVSSGTGGGGSGGGGSGGGGSEFDIQMTQSPSSLSASVGDRVTITCKASDHINNWLAWYQQKPGQAPKLLIYGATTLETGVPSRFSGSGSGTDYTLTISSLQPEDFATYYCQQSWNTPWTFGQGTKLEIKRLEDLKNVFPPEVAVFEPSEAEISHTQKATLVCLATGFYPDHVELSWWVNGKEVHSGVCTDPQPLKEQPALNDSRYCLSSRLRVSATFWQNPRNHFRCQVQFYGLSENDEWTQDRAKPVTQIVSAEAWGRADCGFTSESYQQGVLSATILYEILLGKATLYAVLVSALVLMAMVKRKDSRGRAKRSGSGATNFSLLKQAGDVEENPGPTSMDWIWRILFLVGAATGAHSFEQVQLQQPGAELVKPGASVKMSCKASGYAFSSYWINWMKQKPGQGLEWIGQIYPGDGDTNYNGKFKGRATLTADTSSSTAYMQLSSLTSEDSAVYFCARSITTVVGCAMDYWGQGTSVTVSSTRIQNPDPAVYQLRDSKSSDKSVCLFTDFDSQTNVSQSKDSDVYITDKCVLDMRSMDFKSNSAVAWSNKSDFACANAFNNSIIPEDTFFPSPESSCDVKLVEKSFETDTNLNFQNLSVIGFRILLLKVAGFNLLMTLRLWSSRAKRSGSGVKQTLNFDLLKLAGDVESNPGPSRGHMTEYKPTVRLATRDDVPRAVRTLAAAFADYPATRHTVDPDRHIERVTELQELFLTRVGLDIGKVWVADDGAAVAVWTTPESVEAGAVFAEIGPRMAELSGSRLAAQQQMEGLLAPHRPKEPAWFLATVGVSPDHQGKGLGSAVVLPGVEAAERAGVPAFLETSAPRNLPFYERLGFTVTADVEVPEGPRTWCMTRKPGA
B4: 22129 (protein)
chain: MALPVTALLLPLALLLHAARPEVQVLESGGGLVQPGGSLRLSCAASGFTFSNFAMSWVRQAPGKGLEWVSTISGSAGTTDYADSVKGRFTISRDNSKKTLYLQMNSLRVEDTAVYYCADGRGPFFDYRGQGTLVTVSSGTGGGGSGGGGSGGGGSEFDIQMTQSPSSLSASVGDRVTITCKASDHINNWLAWYQQKPGQAPKLLIYGATTLETGVPSRFSGSGSGTDYTLTISSLQPEDFATYYCQQSWNTPWTFGQGTKLEIKRLEIQNPDPAVYQLRDSKSSDKSVCLFTDFDSQTNVSQSKDSDVYITDKCVLDMRSMDFKSNSAVAWSNKSDFACANAFNNSIIPEDTFFPSSDVPCDVKLVEKSFETDTNLNFQNLSVIGFRILLLKVAGFNLLMTLRLWSSRAKRSGSGVKQTLNFDLLKLAGDVESNPGPTSATMDWIWRILFLVGAATGAHSGPQVQLQESGGGLAQAGGSLRLSCAASGRTFSMGWFRQAPGKEREFVAAITYSGGSPYYASSVRGRFTISRDNAKNTVYLQMNSLKPEDTAVYYCAANPTYGSDWNAENWGQGTQVTVSSGSGGGGSGGGGSGGGGSFEQVQLQQPGAELVKPGASVKMSCKASGYAFSSYWINWMKQKPGQGLEWIGQIYPGDGDTNYNGKFKGRATLTADTSSSTAYMQLSSLTSEDSAVYFCARSITTVVGCAMDYWGQGTSVTVSSTREDLKNVFPPEVAVFEPSKAEIAHTQKATLVCLATGFYPDHVELSWWVNGKEVHSGVCTDPQPLKEQPALNDSRYCLSSRLRVSATFWQNPRNHFRCQVQFYGLSENDEWTQDRAKPVTQIVSAEAWGRADCGITSASYHQGVLSATILYEILLGKATLYAVLVSALVLMAMVKRKDSRGRAKRSGSGATNFSLLKQAGDVEENPGPSRGHMTEYKPTVRLATRDDVPRAVRTLAAAFADYPATRHTVDPDRHIERVTELQELFLTRVGLDIGKVWVADDGAAVAVWTTPESVEAGAVFAEIGPRMAELSGSRLAAQQQMEGLLAPHRPKEPAWFLATVGVSPDHQGKGLGSAVVLPGVEAAERAGVPAFLETSAPRNLPFYERLGFTVTADVEVPEGPRTWCMTRKPGA

Tests used:
Assay type in all cases: cell-based
[1] = system: RS;411; experiment: JNG assay, co-culture with RS;411 cells; conditions: co-culture with RS411
In short: (§1)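 Jurkat NFAT-GFP (JNG) cells stably transduced with SARs by lentivirus, with drug selection where the construct carried a resistance gene, then co-cultured with target cells at E:T ~1:2 for ~4–18 h. % GFP-positive cells measured by FACS against parental JNG; +/- to 5+ correspond to ~5–50% GFP-positive.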

[2] = system: Nalm6 cells; experiment: JNG assay, co-culture with Nalm6 cells; conditions: co-culture with Nalm6
In short: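 Jurkat NFAT-GFP reporter cells stably expressing lentivirally transduced SARs, drug-selected where possible, were co-cultured with target cells at E:T ≈1:2 for ~4–18 h. GFP measured by FACS; scored +/- to 5+ (~5–50% GFP+ cells) above parental reporter cells.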

[3] = system: RAJI cells; experiment: JNG assay, co-culture with RAJI cells; conditions: JNG cells expressing construct, co-culture with Raji
In short: as §1

[4] = system: RAJI-CD19-KO cells; experiment: JNG assay, co-culture with RAJI-CD19-KO cells; conditions: co-culture with Raji-CD19-KO
In short: as §1

[5] = system: L363 cells; experiment: JNG assay, co-culture with L363 cells; conditions: co-culture with L363
In short: as §1

Row | Molecule | NFAT-GFP ASSAY: RS411 [1] | NFAT-GFP ASSAY: Nalm6 [2] | NFAT-GFP ASSAY: Raji [3] | NFAT-GFP ASSAY: Raji-CD19-KO [4] | NFAT-GFP ASSAY: L363 [5]
1 | B1 | 4+ (refer to approximately 5%, 10%, 20%, 30%, 40% and 50% GFP positive cells) | 2+ (refer to approximately 5%, 10%, 20%, 30%, 40% and 50% GFP positive cells) | 2+ (refer to approximately 5%, 10%, 20%, 30%, 40% and 50% GFP positive cells) | +/- (refer to approximately 5%, 10%, 20%, 30%, 40% and 50% GFP positive cells) | +/- (refer to approximately 5%, 10%, 20%, 30%, 40% and 50% GFP positive cells)
2 | B2 | Raji (+), Raji-CD19-KO (+), Nalm6 (+), L363 (+), RS411 (+) (refer to approximately 5%, 10%, 20%, 30%, 40% and 50% GFP positive cells) | Raji (+), Raji-CD19-KO (+), Nalm6 (+), L363 (+), RS411 (+) (refer to approximately 5%, 10%, 20%, 30%, 40% and 50% GFP positive cells) | Raji (+), Raji-CD19-KO (+), Nalm6 (+), L363 (+), RS411 (+) (refer to approximately 5%, 10%, 20%, 30%, 40% and 50% GFP positive cells) | Raji (+), Raji-CD19-KO (+), Nalm6 (+), L363 (+), RS411 (+) (refer to approximately 5%, 10%, 20%, 30%, 40% and 50% GFP positive cells) | Raji (+), Raji-CD19-KO (+), Nalm6 (+), L363 (+), RS411 (+) (refer to approximately 5%, 10%, 20%, 30%, 40% and 50% GFP positive cells)
3 | B3 | 4+ (refer to approximately 5%, 10%, 20%, 30%, 40% and 50% GFP positive cells) | 2+ (refer to approximately 5%, 10%, 20%, 30%, 40% and 50% GFP positive cells) | 4+ (refer to approximately 5%, 10%, 20%, 30%, 40% and 50% GFP positive cells) | 3+ (refer to approximately 5%, 10%, 20%, 30%, 40% and 50% GFP positive cells) | 3+ (refer to approximately 5%, 10%, 20%, 30%, 40% and 50% GFP positive cells)
4 | B4 | Raji (+), Raji-CD19-KO (+), Nalm6 (+), L363 (+), RS411 (+) (refer to approximately 5%, 10%, 20%, 30%, 40% and 50% GFP positive cells) | Raji (+), Raji-CD19-KO (+), Nalm6 (+), L363 (+), RS411 (+) (refer to approximately 5%, 10%, 20%, 30%, 40% and 50% GFP positive cells) | Raji (+), Raji-CD19-KO (+), Nalm6 (+), L363 (+), RS411 (+) (refer to approximately 5%, 10%, 20%, 30%, 40% and 50% GFP positive cells) | Raji (+), Raji-CD19-KO (+), Nalm6 (+), L363 (+), RS411 (+) (refer to approximately 5%, 10%, 20%, 30%, 40% and 50% GFP positive cells) | Raji (+), Raji-CD19-KO (+), Nalm6 (+), L363 (+), RS411 (+) (refer to approximately 5%, 10%, 20%, 30%, 40% and 50% GFP positive cells)

Reference: patent US20230212319A1, “NOVEL ANTIGEN BINDING DOMAINS AND SYNTHETIC ANTIGEN RECEPTORS INCORPORATING THE SAME” (University of Southern California, priority 2020, published 2023)
